According to paper PMC11912406 (Proceedings of the National Academy of Sciences of the …, 2025):
Read-outs that look alike come from different tables or passages of the source.

T1: cell-surface, GPI-anchored murine JUNO on HEK293F cells (murine, UniProt Q9EQF4 20-222)
T1 sequence: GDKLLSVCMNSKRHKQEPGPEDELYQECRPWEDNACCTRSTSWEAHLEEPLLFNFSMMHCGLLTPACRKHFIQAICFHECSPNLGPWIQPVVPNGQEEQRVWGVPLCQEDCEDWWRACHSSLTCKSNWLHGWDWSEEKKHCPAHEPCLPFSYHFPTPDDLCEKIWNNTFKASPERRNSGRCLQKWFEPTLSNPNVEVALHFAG

B1: recombinant murine IZUMO1-human Fc fusion protein (Fc fusion)
chain: CIKCDQFVTDALKTFENTYLNDHLPHDIHKNVMRMVNHEVSSFGVVTSAEDSYLGAVDENTLEQATWSFLKDLKRITDSDLKGELFIKELLWMLRHQKDIFNNLARQFQKEVLCPNKCGVMSQTLIWCLKCEKQLHICRKSLDCGERHIEVHRSEDLVLDCLLSWHRASKGLTDYSFYRVWENSSETLIAKGKEPYLTKSMVGPEDAGNYRCVLDTINQGHATVIRYDVTVLPPKHSEENQPPNIITQEEHETPVHVTPQTPPGQEPESELYPELHPELYPELIPTVAQNPEKKMKTR

Assays:
[1] = biological target: IZUMO1-Fc prebound to OBF13 (IgM) (murine) (UniProt Q9D9J7); assay: BLI
[2] = biological target: recombinant murine IZUMO1-human Fc fusion protein (murine) (UniProt Q9D9J7); assay: BLI
[3] = biological target: IZUMO1-Fc prebound to OBF13^HAC (scFv) (murine) (UniProt Q9D9J7); assay: BLI
[4] = biological target: cell-surface, GPI-anchored murine JUNO on HEK293F cells (murine) (UniProt Q9EQF4); assay: flow cytometry on cells
[5] = biological target: cell-surface, GPI-anchored hamster JUNO on HEK293F cells (hamster); assay: flow cytometry on cells
[6] = biological target: T1, cell-surface, GPI-anchored murine JUNO …; assay: flow cytometry on cells
[7] = biological target: cell-surface, GPI-anchored hamster JUNO on HEK293F cells (hamster); assay: flow cytometry on cells; remark: listed apart in the source

Molecule | fold decrease in kon against IZUMO1 alone [1] | Kd [2] | fold decrease in kon against IZUMO1 alone [3] | other results
murine JUNO ectodomain (domain or fragment) | 3 fold | 11000 nM | 3 fold | Kd [1]: 30100 nM; Kd [3]: 33800 nM
IZUMO1-Fc prebound to OBF13 (IgM) (from UniProt Q9D9J7 22-319) (complex) | – | – | – | EC50 [4]: 551 nM; EC50 [5]: 1.4 nM
hamster JUNO ectodomain (domain or fragment) | 2 fold | 659 nM | 2 fold | –
B1 | – | – | – | EC50 [6]: 10.7 nM; EC50 [7]: 0.198 nM
